# Results published in patent US20260232759A1, “PEPTIDES THAT INHIBIT INFECTION BY SARS-COV-2, THE VIRUS THAT CAUSES COVID-19 DISEASE” (Wisconsin Alumni Research Foundation, priority 2021, published 2026).
# No end group written: not given here.
# Target: SARS-CoV-2 Spike protein (SARS-CoV-2), P0DTC2
# Test: cell-based or functional assay
binder,measurement,value
"DISQINASVVNIEYEIXKLEEVAXKLEESLIDLQELGSGSGC (not fully specified (C-terminus); also: α/β-peptide, β-residue positions not given here) [Bf APC/B3E]","inhibition of S-mediated cell-cell fusion (β-Gal complementation), IC50",50 nM
